Results as given in US20200181238A1.

B1: murine monoclonal anti-human ICAM-1 antibody R6.5 (antibody, from another filing, V domains shown)
VH: QVQLQQSGPELVRPGVSVKISCKGSGYTFIDYAIHWVKESHAKSLEWIGVISAYSGDTNYNQKFKGKATMTVDKSSNTAYLELARLTSEDSAIYYCARGGWLLLSFDYWGQGTTLTVSS
VL: DVVMTQSPLSLPVSLGDQASISCRSSQSLVHSNGNNYLHWYLQKSGQAPKLLIYKVSNRFSGVPDRFSGSGSGTDFTLKISRVEAEDLGVYFCSQSTHVPLTFGGGTKLEIKR

How the values were obtained:
[1] = biological target: ICAM-1 on tumor cells (HeLa, 8505C) (human) (UniProt P05362); experiment: cell-based or functional assay
ICAM-1 on tumor cells (HeLa, 8505C) (human), sequence (P05362 28-532): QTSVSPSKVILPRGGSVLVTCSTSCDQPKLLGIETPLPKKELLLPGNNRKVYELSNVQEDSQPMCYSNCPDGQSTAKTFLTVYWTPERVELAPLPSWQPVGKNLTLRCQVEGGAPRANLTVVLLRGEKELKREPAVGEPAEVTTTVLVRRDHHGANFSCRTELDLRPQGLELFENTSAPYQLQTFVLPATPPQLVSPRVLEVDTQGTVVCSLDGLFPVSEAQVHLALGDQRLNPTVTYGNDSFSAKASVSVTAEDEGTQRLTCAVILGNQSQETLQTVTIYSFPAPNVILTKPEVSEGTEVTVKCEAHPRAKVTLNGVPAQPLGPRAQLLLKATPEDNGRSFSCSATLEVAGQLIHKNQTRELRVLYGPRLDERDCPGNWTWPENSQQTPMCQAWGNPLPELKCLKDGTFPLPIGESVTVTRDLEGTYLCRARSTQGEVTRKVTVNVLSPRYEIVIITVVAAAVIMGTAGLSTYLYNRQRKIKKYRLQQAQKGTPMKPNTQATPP

[2] = biological target: ICAM-1 on tumor cells (HeLa, 8505C) (human) (UniProt P05362); experiment: estimated from titrated R65 antibody binding to HeLa cells
[3] = biological target: ICAM-1 on tumor cells (HeLa, 8505C) (human) (UniProt P05362); experiment: flow cytometry, HeLa cells, R6.5 antibody at 10 µg/ml; ICAM-1 negative 293T control reads 0%
[4] = biological target: ICAM-1 on tumor cells (HeLa, 8505C) (human) (UniProt P05362); experiment: flow cytometry, 8505C cells, R6.5 antibody at 10 µg/ml; ICAM-1 negative 293T control reads 0%

Row | Molecule | percent of 8505C cells viable after 24 hours with CAR T cells, E:T 2.5:1 (bioluminescence, normalized to non-transduced T cells) [1] | percent of HeLa cells viable after 24 hours with CAR T cells, E:T 2.5:1 (bioluminescence, normalized to non-transduced T cells) [1] | Kd [2] | % ICAM-1 positive cells [3] | % ICAM-1 positive cells [4]
1 | R6.5-CAR (third generation anti-ICAM-1 chimeric antigen receptor on primary human T cells) (from UniProt P10747 153-220; Q07011 214-255; P20963 52-164) (scFv) | 52% | 17% |  |  | 
2 | B1 |  |  | 10 nM | 100% | 97%
